Laboratory results: PMC4337892 (Molecular cell, 2014)

T1: H. sapiens laforin residues 1-328, wild-type (human), O95278
T1 chain: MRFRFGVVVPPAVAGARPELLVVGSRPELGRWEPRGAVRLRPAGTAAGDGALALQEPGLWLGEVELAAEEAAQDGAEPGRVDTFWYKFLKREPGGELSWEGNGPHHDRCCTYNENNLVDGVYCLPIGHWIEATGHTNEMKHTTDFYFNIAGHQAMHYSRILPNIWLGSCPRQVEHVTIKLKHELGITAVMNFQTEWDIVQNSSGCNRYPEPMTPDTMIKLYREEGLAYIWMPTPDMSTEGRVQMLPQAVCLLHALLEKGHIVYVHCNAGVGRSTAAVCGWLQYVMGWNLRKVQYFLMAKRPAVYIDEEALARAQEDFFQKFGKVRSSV


Columns and labels:
[1] = target: T1, H. sapiens laforin residues 1-328, …; experiment: AUC; details: remark: other sources report otherwise
SEC-SAXS = target: the molecule itself; experiment: SEC-SAXS

Binder	stoichiometry N [1]	stoichiometry N (SEC-SAXS)
H. sapiens laforin residues 1-328, wild-type, O95278 1-328 (enzyme) MRFRFGVVVPPAVAGARPELLVVGSRPELGRWEPRGAVRLRPAGTAAGDGALALQEPGLWLGEVELAAEEAAQDGAEPGRVDTFWYKFLKREPGGELSWEGNGPHHDRCCTYNENNLVDGVYCLPIGHWIEATGHTNEMKHTTDFYFNIAGHQAMHYSRILPNIWLGSCPRQVEHVTIKLKHELGITAVMNFQTEWDIVQNSSGCNRYPEPMTPDTMIKLYREEGLAYIWMPTPDMSTEGRVQMLPQAVCLLHALLEKGHIVYVHCNAGVGRSTAAVCGWLQYVMGWNLRKVQYFLMAKRPAVYIDEEALARAQEDFFQKFGKVRSSV	2	–
H. sapiens laforin residues 1-328, C266S (enzyme, human, UniProt O95278 1-328, looked up) MRFRFGVVVPPAVAGARPELLVVGSRPELGRWEPRGAVRLRPAGTAAGDGALALQEPGLWLGEVELAAEEAAQDGAEPGRVDTFWYKFLKREPGGELSWEGNGPHHDRCCTYNENNLVDGVYCLPIGHWIEATGHTNEMKHTTDFYFNIAGHQAMHYSRILPNIWLGSCPRQVEHVTIKLKHELGITAVMNFQTEWDIVQNSSGCNRYPEPMTPDTMIKLYREEGLAYIWMPTPDMSTEGRVQMLPQAVCLLHALLEKGHIVYVHSNAGVGRSTAAVCGWLQYVMGWNLRKVQYFLMAKRPAVYIDEEALARAQEDFFQKFGKVRSSV	–	2
